Experimental data: patent US20190248924A1

Biological target: human CTLA-4Ig (R&D Systems) (human) (UniProt P16410)
Experiment: ELISA, human CTLA-4Ig immobilized on the plate, detection with anti-human Fab-HRP, OD450; unit taken from the x axis; fit value of a flat control curve, far beyond the range tested

Chain of UniProt P16410 (P16410 37-162): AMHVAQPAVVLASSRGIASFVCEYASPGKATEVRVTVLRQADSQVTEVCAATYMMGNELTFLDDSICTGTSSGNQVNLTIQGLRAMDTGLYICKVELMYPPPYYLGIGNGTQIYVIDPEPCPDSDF

With hIgG Control (antibody) the EC50 was 51.3 µM.
